The values that follow come from patent US20220204643A1 (published 2022).

Test [1] concerns the target T1, homeobox and leucine zipper encoding (human, UniProt Q8IX15 25-550).
T1 construct: HuProt array protein, full-length recombinant from yeast; also called HOMEZ
T1 sequence: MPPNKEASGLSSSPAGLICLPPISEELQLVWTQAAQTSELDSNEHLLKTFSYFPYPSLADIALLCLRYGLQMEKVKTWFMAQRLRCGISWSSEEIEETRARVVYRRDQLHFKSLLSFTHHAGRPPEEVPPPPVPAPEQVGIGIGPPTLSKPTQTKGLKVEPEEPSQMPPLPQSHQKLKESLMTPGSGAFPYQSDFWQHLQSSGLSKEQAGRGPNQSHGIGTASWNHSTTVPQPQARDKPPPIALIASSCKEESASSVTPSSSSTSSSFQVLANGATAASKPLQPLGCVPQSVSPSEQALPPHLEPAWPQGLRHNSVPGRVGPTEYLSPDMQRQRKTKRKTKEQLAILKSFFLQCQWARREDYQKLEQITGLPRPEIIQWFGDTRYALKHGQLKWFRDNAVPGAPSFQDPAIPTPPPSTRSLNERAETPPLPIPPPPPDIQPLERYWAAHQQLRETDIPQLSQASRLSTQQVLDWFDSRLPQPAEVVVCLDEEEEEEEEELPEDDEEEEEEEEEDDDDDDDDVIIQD

Test [2] concerns the target T2, BAR/IMD domain containing adaptor protein 2, transcript variant 3 (human, UniProt Q9UQB8 1-511).
T2 construct: HuProt array protein, full-length recombinant from yeast; also called BAIAP2
T2 sequence: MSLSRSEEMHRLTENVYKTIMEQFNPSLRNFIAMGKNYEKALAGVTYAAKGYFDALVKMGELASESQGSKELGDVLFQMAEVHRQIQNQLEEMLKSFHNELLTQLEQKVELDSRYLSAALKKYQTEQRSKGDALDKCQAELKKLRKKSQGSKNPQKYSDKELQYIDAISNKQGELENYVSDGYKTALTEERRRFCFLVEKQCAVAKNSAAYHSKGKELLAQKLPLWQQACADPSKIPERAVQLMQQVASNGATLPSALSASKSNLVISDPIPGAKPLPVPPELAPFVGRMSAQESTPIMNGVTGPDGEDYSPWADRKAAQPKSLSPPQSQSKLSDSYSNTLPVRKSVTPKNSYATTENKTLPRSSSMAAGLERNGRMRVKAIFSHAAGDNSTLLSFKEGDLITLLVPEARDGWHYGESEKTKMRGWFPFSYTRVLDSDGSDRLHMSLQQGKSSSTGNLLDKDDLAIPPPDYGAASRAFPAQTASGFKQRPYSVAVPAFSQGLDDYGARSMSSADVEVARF

Test [3] addresses T3, sorting nexin 33, transcript variant 1 (human, UniProt Q8WV41 1-574).
T3 construct: HuProt array protein, full-length recombinant from yeast; also called SNX33
T3 sequence: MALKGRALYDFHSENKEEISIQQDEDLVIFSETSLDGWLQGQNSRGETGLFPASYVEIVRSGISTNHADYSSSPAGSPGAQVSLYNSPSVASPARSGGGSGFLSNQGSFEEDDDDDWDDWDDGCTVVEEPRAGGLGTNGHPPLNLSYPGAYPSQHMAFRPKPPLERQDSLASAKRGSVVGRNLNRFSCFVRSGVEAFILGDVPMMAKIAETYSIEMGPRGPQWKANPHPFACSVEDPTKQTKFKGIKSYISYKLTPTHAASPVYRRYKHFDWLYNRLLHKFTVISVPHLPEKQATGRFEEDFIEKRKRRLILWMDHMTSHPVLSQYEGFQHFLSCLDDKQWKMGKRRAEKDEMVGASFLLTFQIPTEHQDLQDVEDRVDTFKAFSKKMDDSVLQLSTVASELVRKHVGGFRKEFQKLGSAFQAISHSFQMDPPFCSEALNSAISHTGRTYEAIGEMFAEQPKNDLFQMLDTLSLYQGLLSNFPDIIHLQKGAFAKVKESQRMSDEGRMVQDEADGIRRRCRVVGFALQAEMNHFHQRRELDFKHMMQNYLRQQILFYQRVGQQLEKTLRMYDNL

Test [4] concerns the target T4, FA complementation group G (human, UniProt O15287 1-622).
T4 construct: on protein array; also called FANCG
T4 sequence: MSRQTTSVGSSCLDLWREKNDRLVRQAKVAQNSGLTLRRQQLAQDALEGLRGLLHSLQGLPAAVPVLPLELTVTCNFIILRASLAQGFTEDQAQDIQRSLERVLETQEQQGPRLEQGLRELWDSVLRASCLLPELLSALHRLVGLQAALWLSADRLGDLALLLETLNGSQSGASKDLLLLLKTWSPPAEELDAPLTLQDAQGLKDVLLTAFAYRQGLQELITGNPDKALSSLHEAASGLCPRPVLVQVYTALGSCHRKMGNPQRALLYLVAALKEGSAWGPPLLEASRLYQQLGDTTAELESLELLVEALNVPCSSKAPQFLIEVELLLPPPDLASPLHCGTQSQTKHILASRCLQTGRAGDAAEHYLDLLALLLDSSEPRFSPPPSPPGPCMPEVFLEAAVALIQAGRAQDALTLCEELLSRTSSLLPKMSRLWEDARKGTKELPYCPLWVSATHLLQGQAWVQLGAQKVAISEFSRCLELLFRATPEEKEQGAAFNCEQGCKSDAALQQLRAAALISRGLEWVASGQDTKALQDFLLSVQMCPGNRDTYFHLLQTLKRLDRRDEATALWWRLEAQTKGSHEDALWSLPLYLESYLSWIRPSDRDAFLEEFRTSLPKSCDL
Description: protein array.

Another test concerns the target T5, extended synaptotagmin 2 (human, UniProt A0FGR8 564-921).
T5 construct: HuProt array protein; labelled _frag; also called ESYT2_frag
T5 sequence: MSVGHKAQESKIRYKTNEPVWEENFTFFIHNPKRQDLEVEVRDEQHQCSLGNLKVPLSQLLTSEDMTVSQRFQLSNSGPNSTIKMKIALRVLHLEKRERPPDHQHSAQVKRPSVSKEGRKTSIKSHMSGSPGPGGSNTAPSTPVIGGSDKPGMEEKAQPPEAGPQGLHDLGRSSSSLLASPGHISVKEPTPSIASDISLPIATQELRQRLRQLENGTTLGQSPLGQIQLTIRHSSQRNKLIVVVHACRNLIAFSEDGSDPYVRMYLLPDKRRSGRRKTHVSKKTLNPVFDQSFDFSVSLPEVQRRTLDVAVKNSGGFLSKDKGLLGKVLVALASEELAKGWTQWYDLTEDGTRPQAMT

The target in test [5] is T6, leucine rich repeat containing 28, transcript variant 1 (human, UniProt Q86X40 1-367).
T6 construct: HuProt array protein, full-length recombinant from yeast; also called LRRC28

Another test addresses T7, LIM homeobox 5 (human, UniProt Q9H2C1 1-402).
T7 construct: HuProt array protein, full-length recombinant from yeast; also called LHX5
T7 sequence: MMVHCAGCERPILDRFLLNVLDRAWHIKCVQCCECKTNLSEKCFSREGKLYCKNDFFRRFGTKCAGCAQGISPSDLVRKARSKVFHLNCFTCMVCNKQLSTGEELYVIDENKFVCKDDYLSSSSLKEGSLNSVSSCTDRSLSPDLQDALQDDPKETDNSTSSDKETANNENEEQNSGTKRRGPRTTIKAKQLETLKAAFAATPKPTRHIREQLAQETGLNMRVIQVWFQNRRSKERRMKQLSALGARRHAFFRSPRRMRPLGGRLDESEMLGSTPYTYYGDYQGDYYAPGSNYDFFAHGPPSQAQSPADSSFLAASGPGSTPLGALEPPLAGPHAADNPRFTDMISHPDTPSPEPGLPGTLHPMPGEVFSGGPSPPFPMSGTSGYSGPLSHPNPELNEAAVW

Test [6] addresses T8, growth factor receptor bound protein 2, transcript variant 1 (human, UniProt P62993 1-217).
T8 construct: HuProt array protein, full-length recombinant from yeast; also called GRB2

Test [7] addresses T9, KH RNA binding domain containing, signal transduction associated 2, transcript variant 2 (human, UniProt Q5VWX1 1-349).
T9 construct: HuProt array protein, full-length recombinant from yeast; also called KHDRBS2
T9 sequence: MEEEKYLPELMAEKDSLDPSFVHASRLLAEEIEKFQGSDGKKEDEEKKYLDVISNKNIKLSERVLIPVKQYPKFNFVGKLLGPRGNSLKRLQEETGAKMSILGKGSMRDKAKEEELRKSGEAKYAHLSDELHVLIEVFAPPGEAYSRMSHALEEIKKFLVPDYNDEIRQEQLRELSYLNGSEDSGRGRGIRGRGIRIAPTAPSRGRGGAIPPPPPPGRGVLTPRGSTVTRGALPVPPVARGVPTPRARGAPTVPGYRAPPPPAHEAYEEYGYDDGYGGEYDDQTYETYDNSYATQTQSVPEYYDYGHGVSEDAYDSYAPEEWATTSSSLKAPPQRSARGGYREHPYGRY

T6 sequence (Q86X40 whole entry, change not shown): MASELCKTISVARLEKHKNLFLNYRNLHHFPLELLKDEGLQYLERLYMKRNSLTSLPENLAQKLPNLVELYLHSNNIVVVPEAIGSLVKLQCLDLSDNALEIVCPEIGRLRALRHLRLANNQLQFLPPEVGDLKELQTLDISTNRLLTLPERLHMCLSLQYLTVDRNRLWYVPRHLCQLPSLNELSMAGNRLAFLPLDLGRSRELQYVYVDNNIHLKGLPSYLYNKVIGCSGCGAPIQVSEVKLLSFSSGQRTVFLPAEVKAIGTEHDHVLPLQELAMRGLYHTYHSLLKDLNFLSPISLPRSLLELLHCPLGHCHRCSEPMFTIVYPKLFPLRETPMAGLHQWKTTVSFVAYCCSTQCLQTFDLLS

B1: TCOL1006 (antibody, V domains shown)
VH: EVQLVESGGGLVQPGGSLRLSCAASGFPPRSFAMSWVRQAPGKGLEWVSSISGLGNSIYYAESVKGRFITSRDNSKSTVFLLMNSLRAEDTAVYYCAKSAFGGVPDGFDIWGQGTMVTVSS
VL: QSVVTQPPSASGPPGQTVTISCSGGRSNVASHAVHWYQHLPGTAPKLLIYNDHQRPSGVPDRFSGSKSGPSASLAISGLRSEDEADYYCATWDDSLGGRVVFGGGTKLTVLG
notes: detected with anti-human IgG Fc
B1: the binding result in [1] and in test [2] was “binds” in each case.

B2: TCER1006 (antibody, V domains shown)
VH: EVQLVQSGAEVKKPGESLKISCKGSGYSFTSFWIGWVRQMPGKGLEWMGIIFPADSDTRYSPSFQGQVIISVDKSISTAYLQWSSLKASDTAMYYCARRGVSGGSAWTYYNFFDPWGQGTLVTVAS
VL: PSVLTQPPSVSAAPGQKVTISCSGSSSNIDNNYVSWYQQLPGTAPKLLIYENNKRASGIPDRFSGSKSGTSATLGITGLQTGDEADYYCGTWDSSLSPGGVFGGGTKLTVLG
notes: as for B1
For the molecule B2, the binding result in test [3] is listed as “binds”.

B3: TBRE1024 (antibody, V domains shown)
VH: PVQLQESGPGLVKPSETLSLTCTVSGGSISSDNYYWSWLRQHPGKGLEWIGYIYFSVTTYYNPSLKSRVTISLDTSKNQFSLKLSSVTAADTAVYYCASGYVSFDLWGQGTLVTVSS
VL: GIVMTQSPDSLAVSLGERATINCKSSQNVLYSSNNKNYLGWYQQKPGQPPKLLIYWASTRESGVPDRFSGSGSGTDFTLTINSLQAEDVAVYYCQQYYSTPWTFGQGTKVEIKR
notes: VH/VL only
Consider B3, for which the binding result in test [4] is on record as “binds”.

B4: TCOL1004 (antibody, V domains shown)
VH: QVQLQESGPGLVKPSQTLSLTCIVSGGSISGDKNFWSWVRQHPEKGLEWLGYISYNGNTYYNPSLISRIIISLDTPKNLFSLRLSSVTVADTAIYYCAREVDIRGDSDAFDIWGRGTVVTVSS
VL: EIVMTQSPATLSVSPGERATLSCRASQSVSTNLAWYQQRPGQAPRLFIFGASTRATGIPARFSGSGSGTEFTLTISSPQPEDSAVYYCQQYTTRPLTFGGGTKVEIKR
notes: as for B1
For B4, the binding result with extended synaptotagmin 2 was “binds”.

B5: TESO1003 (antibody, V domains shown)
VH: QVQLVESGGGVVQPGRSLRLSCAASGFTFSNYDMHWVRQAPGKGLEWVTVVSYDGTNKYYAESVQGRFTISRDNSKNTLYLQMNSLRTEDTAVYYCAKEGGWGNTVTTSYYYYGMDVWGQGTTVTVSS
VL: QIVLTQSPATLSLSPGERATLSCRASQSVSNYLAWYQQKPGQAPRLLIYDASNRATGIPARFSGSGSGTDFTLTISSLEPEDFAVYYCQQRSNWPPYTFGQGTKLDIKR
notes: as for B1
B5: the binding result in test [5] is listed as “binds”.

B6: TCOL1009 (antibody, V domains shown)
VH: PVQLVQSGAEVKKPGASVKVSCKASGDTFPNYVISWVRQAPGQGLEWVGCINTNNGKTNYVQKLQGRVILTTDTSTNTANMELRSLRFDDTAVYYCARERGQVRSYGMDVWGQGTAVTVSS
VL: PYELTQPPSVSVSPGQTANITCSGDKLGDICVCWYQQKPGQSPVLVIYQHNKRPSGIPERFSGSNSGNTATLTISATQATDEAIYYCQSWDSSSVLFGGGTKLTVLG
notes: as for B1
In the case of B6, the binding result (in the test with LIM homeobox 5; in [6]) was “binds” each time.

B7: TCHO1001 (antibody, V domains shown)
VH: PVHLVQSGAEVKKPGSSVKVSCKLSGGIFSYFAIIWVRQAPGQGLEWMGTIIPIFGTSNYAEKFQDRVAIVADEATSTVYMEVNSLRSEDTAIYFCARDSEVEKSDGYMASTAEYFQLWGQGTLVTVSS
VL: not shown
notes: detected with anti-human IgG Fc; also called TCH01001
For B7, in test [7], the binding result is recorded as “binds”.
